Measured values from patent publication US20110263454A1, “Methods of Identifying Functional Characteristics of Promoters, Transcription Modifying Proteins and Transcription Modulating Agents” (Salk Institute for Biological Studies, priority 2008, published 2011).

B1: hMR: Mineralocorticoid Receptor (NR3C2, MR), cDNA driver (protein, UniProt P08235 1-984, looked up)
Mineralocorticoid receptor: METKGYHSLPEGLDMERRWGQVSQAVERSSLGPTERTDENNYMEIVNVSCVSGAIPNNSTQGSSKEKQELLPCLQQDNNRPGILTSDIKTELESKELSATVAESMGLYMDSVRDADYSYEQQNQQGSMSPAKIYQNVEQLVKFYKGNGHRPSTLSCVNTPLRSFMSDSGSSVNGGVMRAVVKSPIMCHEKSPSVCSPLNMTSSVCSPAGINSVSSTTASFGSFPVHSPITQGTPLTCSPNVENRGSRSHSPAHASNVGSPLSSPLSSMKSSISSPPSHCSVKSPVSSPNNVTLRSSVSSPANINNSRCSVSSPSNTNNRSTLSSPAASTVGSICSPVNNAFSYTASGTSAGSSTLRDVVPSPDTQEKGAQEVPFPKTEEVESAISNGVTGQLNIVQYIKPEPDGAFSSSCLGGNSKINSDSSFSVPIKQESTKHSCSGTSFKGNPTVNPFPFMDGSYFSFMDDKDYYSLSGILGPPVPGFDGNCEGSGFPVGIKQEPDDGSYYPEASIPSSAIVGVNSGGQSFHYRIGAQGTISLSRSARDQSFQHLSSFPPVNTLVESWKSHGDLSSRRSDGYPVLEYIPENVSSSTLRSVSTGSSRPSKICLVCGDEASGCHYGVVTCGSCKVFFKRAVEGQHNYLCAGRNDCIIDKIRRKNCPACRLQKCLQAGMNLGARKSKKLGKLKGIHEEQPQQQQPPPPPPPPQSPEEGTTYIAPAKEPSVNTALVPQLSTISRALTPSPVMVLENIEPEIVYAGYDSSKPDTAENLLSTLNRLAGKQMIQVVKWAKVLPGFKNLPLEDQITLIQYSWMCLSSFALSWRSYKHTNSQFLYFAPDLVFNEEKMHQSAMYELCQGMHQISLQFVRLQLTFEEYTIMKVLLLLSTIPKDGLKSQAAFEEMRTNYIKELRKMVTKCPNNSGQSWQRFYQLTKLLDSMHDLVSDLLEFCFYTFRESHALKVEFPAMLVEIISDQLPKVESGNAKPLYFHRK
B2: CTF2: COUP-TF2 (NR2F2), cDNA driver (protein, UniProt P24468 1-414, looked up)
COUP transcription factor 2: MAMVVSTWRDPQDEVPGSQGSQASQAPPVPGPPPGAPHTPQTPGQGGPASTPAQTAAGGQGGPGGPGSDKQQQQQHIECVVCGDKSSGKHYGQFTCEGCKSFFKRSVRRNLSYTCRANRNCPIDQHHRNQCQYCRLKKCLKVGMRREAVQRGRMPPTQPTHGQFALTNGDPLNCHSYLSGYISLLLRAEPYPTSRFGSQCMQPNNIMGIENICELAARMLFSAVEWARNIPFFPDLQITDQVALLRLTWSELFVLNAAQCSMPLHVAPLLAAAGLHASPMSADRVVAFMDHIRIFQEQVEKLKALHVDSAEYSCLKAIVLFTSDACGLSDVAHVESLQEKSQCALEEYVRSQYPNQPTRFGKLLLRLPSLRTVSSSVIEQLFFVRLVGKTPIETLIRDMLLSGSSFNWPYMAIQ
B3: Erb: Estrogen Receptor β (NR3A2, ERb), cDNA driver (protein, UniProt Q92731 1-530, looked up)
Estrogen receptor beta: MDIKNSPSSLNSPSSYNCSQSILPLEHGSIYIPSSYVDSHHEYPAMTFYSPAVMNYSIPSNVTNLEGGPGRQTTSPNVLWPTPGHLSPLVVHRQLSHLYAEPQKSPWCEARSLEHTLPVNRETLKRKVSGNRCASPVTGPGSKRDAHFCAVCSDYASGYHYGVWSCEGCKAFFKRSIQGHNDYICPATNQCTIDKNRRKSCQACRLRKCYEVGMVKCGSRRERCGYRLVRRQRSADEQLHCAGKAKRSGGHAPRVRELLLDALSPEQLVLTLLEAEPPHVLISRPSAPFTEASMMMSLTKLADKELVHMISWAKKIPGFVELSLFDQVRLLESCWMEVLMMGLMWRSIDHPGKLIFAPDLVLDRDEGKCVEGILEIFDMLLATTSRFRELKLQHKEYLCVKAMILLNSSMYPLVTATQDADSSRKLAHLLNAVTDALVWVIAKSGISSQQQSMRLANLLMLLSHVRHASNKGMEHLLNMKCKNVVPVYDLLLEMLNAHVLRGCKSSITGSECSPAEDSKSKEGSQNPQSQ
B4: CTF1: COUP-TF1 (NR2F1), cDNA driver (protein, UniProt P10589 1-423, looked up)
COUP transcription factor 1: MAMVVSSWRDPQDDVAGGNPGGPNPAAQAARGGGGGAGEQQQQAGSGAPHTPQTPGQPGAPATPGTAGDKGQGPPGSGQSQQHIECVVCGDKSSGKHYGQFTCEGCKSFFKRSVRRNLTYTCRANRNCPIDQHHRNQCQYCRLKKCLKVGMRREAVQRGRMPPTQPNPGQYALTNGDPLNGHCYLSGYISLLLRAEPYPTSRYGSQCMQPNNIMGIENICELAARLLFSAVEWARNIPFFPDLQITDQVSLLRLTWSELFVLNAAQCSMPLHVAPLLAAAGLHASPMSADRVVAFMDHIRIFQEQVEKLKALHVDSAEYSCLKAIVLFTSDACGLSDAAHIESLQEKSQCALEEYVRSQYPNQPSRFGKLLLRLPSLRTVSSSVIEQLFFVRLVGKTPIETLIRDMLLSGSSFNWPYMSIQCS
B5: ERR3: Estrogen Related Receptor γ (NR3B3, ERRg), cDNA driver (protein, UniProt P62508 1-458, looked up)
Estrogen-related receptor …: MDSVELCLPESFSLHYEEELLCRMSNKDRHIDSSCSSFIKTEPSSPASLTDSVNHHSPGGSSDASGSYSSTMNGHQNGLDSPPLYPSAPILGGSGPVRKLYDDCSSTIVEDPQTKCEYMLNSMPKRLCLVCGDIASGYHYGVASCEACKAFFKRTIQGNIEYSCPATNECEITKRRRKSCQACRFMKCLKVGMLKEGVRLDRVRGGRQKYKRRIDAENSPYLNPQLVQPAKKPYNKIVSHLLVAEPEKIYAMPDPTVPDSDIKALTTLCDLADRELVVIIGWAKHIPGFSTLSLADQMSLLQSAWMEILILGVVYRSLSFEDELVYADDYIMDEDQSKLAGLLDLNNAILQLVKKYKSMKLEKEEFVTLKAIALANSDSMHIEDVEAVQKLQDVLHEALQDYEAGQHMEDPRRAGKMLMTLPLLRQTSTKAVQHFYNIKLEGKVPMHKLFLEMLEAKV
B6: ERR2: Estrogen Related Receptor β (NR3B2, ERRb), cDNA driver (protein, UniProt O95718 1-433, looked up)
Steroid hormone receptor ERR2: MSSDDRHLGSSCGSFIKTEPSSPSSGIDALSHHSPSGSSDASGGFGLALGTHANGLDSPPMFAGAGLGGTPCRKSYEDCASGIMEDSAIKCEYMLNAIPKRLCLVCGDIASGYHYGVASCEACKAFFKRTIQGNIEYSCPATNECEITKRRRKSCQACRFMKCLKVGMLKEGVRLDRVRGGRQKYKRRLDSESSPYLSLQISPPAKKPLTKIVSYLLVAEPDKLYAMPPPGMPEGDIKALTTLCDLADRELVVIIGWAKHIPGFSSLSLGDQMSLLQSAWMEILILGIVYRSLPYDDKLVYAEDYIMDEEHSRLAGLLELYRAILQLVRRYKKLKVEKEEFVTLKALALANSDSMYIEDLEAVQKLQDLLHEALQDYELSQRHEEPWRTGKLLLTLPLLRQTAAKAVQHFYSVKLQGKVPMHKLFLEMLEAKV
B7: CTF3: COUP-TF3 (NR2F6), cDNA driver (protein, UniProt P10588 1-404, looked up)
Nuclear receptor subfamily 2 …: MAMVTGGWGGPGGDTNGVDKAGGYPRAAEDDSASPPGAASDAEPGDEERPGLQVDCVVCGDKSSGKHYGVFTCEGCKSFFKRSIRRNLSYTCRSNRDCQIDQHHRNQCQYCRLKKCFRVGMRKEAVQRGRIPHSLPGAVAASSGSPPGSALAAVASGGDLFPGQPVSELIAQLLRAEPYPAAAGRFGAGGGAAGAVLGIDNVCELAARLLFSTVEWARHAPFFPELPVADQVALLRLSWSELFVLNAAQAALPLHTAPLLAAAGLHAAPMAAERAVAFMDQVRAFQEQVDKLGRLQVDSAEYGCLKAIALFTPDACGLSDPAHVESLQEKAQVALTEYVRAQYPSQPQRFGRLLLRLPALRAVPASLISQLFFMRLVGKTPIETLIRDMLLSGSTFNWPYGSGQ

tested on: hCAR promoter; assay: NHR-promoter luciferase screen, hCAR promoter; type: cell-based, human; settings: hCAR promoter-luciferase, CV-1 cells, NHR +/- ligand, control = 1.00
Summary of the method: (§1)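 CV-1 cells were co-transfected with 50 ng NHR (homodimer or NHR/RXR heterodimer), 100 ng promoter-luciferase construct and 50 ng LacZ. Luciferase was normalized to LacZ and to a no-NHR/no-ligand control.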

Row | Molecule | luciferase activity normalized to lacZ activity and to a control, hCAR
1 | B1 | 0.81
2 | B2 | 0.23
3 | B3 | 0.81
4 | B4 | 0.14
5 | B5 | 1.34
6 | B6 | 0.77
7 | B7 | 0.14

same assay, conditions: hCAR promoter; HR/ligand component

Row | Molecule | Luc. act., normalized to lacZ | Normalized Luc. act., normalized to control
8 | B1 | 25.6 | 0.8
9 | B2 | 7.2 | 0.2
10 | B3 | 25.7 | 0.8
11 | B4 | 4.5 | 0.1
12 | B5 | 42.2 | 1.3
13 | B6 | 24.2 | 0.8
14 | B7 | 4.5 | 0.1

tested on: mNPY promoter; assay: NHR-promoter luciferase screen, mNPY promoter; type: cell-based, mouse; settings: Table 6d; luciferase activity relative to control (control = 1.00)
Summary of the method: as §1

Row | Molecule | Results of assays of transcription factor (+/- ligand) with mNPY
15 | B1 | 0.58
16 | B2 | 0.65
17 | B3 | 0.79
18 | B4 | 0.47
19 | B5 | 1.11
20 | B6 | 1.02
21 | B7 | 0.48

same assay, conditions: mNPY promoter; HR component with or without ligand

Row | Molecule | Luc. act., normalized to lacZ
22 | B1 | 48.9
23 | B2 | 54.7
24 | B3 | 66.5
25 | B4 | 39.2
26 | B5 | 93.1
27 | B6 | 85.4
28 | B7 | 40.6

same assay, conditions: mNPY promoter; HR component with or without ligand; relative to control

Row | Molecule | Normalized Luc. act., normalized to control
29 | B1 | 0.6
30 | B2 | 0.7
31 | B3 | 0.8
32 | B4 | 0.5
33 | B5 | 1.1
34 | B6 | 1.0
35 | B7 | 0.5

tested on: hTNFa promoter; assay: NHR-promoter luciferase screen, hTNFa promoter; type: cell-based, human; settings: TNFa promoter; HR component without or with ligand
Summary of the method: as §1

Row | Molecule | Luc. act., normalized to lacZ | Normalized Luc. act., normalized to control
36 | B1 | 614.3 | 0.6
37 | B2 | 1014.3 | 1.0
38 | B3 | 811.5 | 0.8
39 | B4 | 728.5 | 0.7
40 | B5 | 2705.8 | 2.8
41 | B6 | 1655.6 | 1.7
42 | B7 | 932.4 | 0.9

same assay, conditions: transcription factor +/- ligand; control = 1.00

Row | Molecule | hTNFa promoter reporter activity
43 | B1 | 0.62
44 | B2 | 1.03
45 | B3 | 0.83
46 | B4 | 0.74
47 | B5 | 2.75
48 | B6 | 1.68
49 | B7 | 0.95
